Residue numbers refer to the chain shown, from its start. Numbers in names are those of the source.
B1: H1_L1.73 (antibody, V domains shown)
VH: EVQLVESGGGLVQPGGSLRLSCAASGFTFSSFGMHWVRQAPGKGLEWVSYISSGSSIIYYADSVKGRFTISRDNAKNSLYLQMNSLRAEDTAVYYCARGGRLVWSPDYWGQGTLVTVSS
VL: DIVMTQSPDSLAVSLGERATINCKSSQSLLNSGNQKNYLTWYQQKPGQPPKLLIYDASTRESGVPDRFTGSGSGTDFTLTISSLQAEDVAVYYCQNDYSYPFTFGSGTKLEIKR
notes: also called VL-W56D; Kabat 50
B2: H1_L1.69 (antibody, V domains shown)
VH: B1 VH
VL: B1 VL with D56I
notes: also called VL-W56I; Kabat 50
B3: H1_L1.77 (antibody, V domains shown)
VH: B1 VH
VL: B1 VL with D56W, T59A
notes: also called VL-T59A; Kabat 53
B4: H1_L1.76 (antibody, V domains shown)
VH: B1 VH
VL: B1 VL with D56W, T59S
notes: also called VL-T59S; Kabat 53
B5: H1_L1.66 (antibody, V domains shown)
VH: B1 VH
VL: B1 VL with D56F
notes: also called VL-W56F; Kabat 50
B6: H1_L1.72 (antibody, V domains shown)
VH: B1 VH
VL: B1 VL with D56S
notes: also called VL-W56S; Kabat 50
B7: H1_L1.65 (antibody, V domains shown)
VH: B1 VH
VL: B1 VL with T40A, D56W
notes: also called VL-T40A; Kabat 34
B8: H1_L1.75 (antibody, V domains shown)
VH: B1 VH
VL: B1 VL with D56W, T59V
notes: also called VL-T59V; Kabat 53
B9: H1_L1.74 (antibody, V domains shown)
VH: B1 VH
VL: B1 VL with D56R
notes: also called VL-W56R; Kabat 50
B10: H1_L1.68 (antibody, V domains shown)
VH: B1 VH
VL: B1 VL with D56Y
notes: also called VL-W56Y; Kabat 50
B11: H1_L1.71 (antibody, V domains shown)
VH: B1 VH
VL: B1 VL with D56Q
notes: also called VL-W56Q; Kabat 50
B12: H1_L1.67 (antibody, V domains shown)
VH: B1 VH
VL: B1 VL with D56L
notes: also called VL-W56L; Kabat 50
B13: H1_L1.70 (antibody, V domains shown)
VH: B1 VH
VL: B1 VL with D56H
notes: also called VL-W56H; Kabat 50
B14: H1_L1.25 (antibody, V domains shown)
VH: B1 VH
VL: B1 VL with N34E, D56W
notes: also called VL-N34E; Kabat 28
B15: H1_L1.42 (antibody, V domains shown)
VH: B1 VH
VL: B1 VL with K36D, D56W
notes: also called VL-K36D; Kabat 30
B16: H1_L1.40 (antibody, V domains shown)
VH: B1 VH
VL: B1 VL with K36E, D56W
notes: also called VL-K36E; Kabat 30
B17: H1_L1.46 (antibody, V domains shown)
VH: B1 VH
VL: B1 VL with K36I, D56W
notes: also called VL-K36I; Kabat 30
B18: H1_L1.28 (antibody, V domains shown)
VH: B1 VH
VL: B1 VL with N34L, D56W
notes: also called VL-N34L; Kabat 28
B19: H1_L1.32 (antibody, V domains shown)
VH: B1 VH
VL: B1 VL with Q35E, D56W
notes: also called VL-Q35E; Kabat 29
B20: H1_L1.34 (antibody, V domains shown)
VH: B1 VH
VL: B1 VL with Q35N, D56W
notes: also called VL-Q35N; Kabat 29
B21: H1_L1.41 (antibody, V domains shown)
VH: B1 VH
VL: B1 VL with K36H, D56W
notes: also called VL-K36H; Kabat 30
B22: H1_L1.47 (antibody, V domains shown)
VH: B1 VH
VL: B1 VL with N37D, D56W
notes: also called VL-N37D; Kabat 31
B23: H1_L1.50 (antibody, V domains shown)
VH: B1 VH
VL: B1 VL with N37S, D56W
notes: also called VL-N37S; Kabat 31
B24: H1_L1.45 (antibody, human IgG1, kappa, V domains shown)
VH: B1 VH
VL: B1 VL with K36Y, D56W
notes: also called VL-K36Y; Kabat 30
B25: H1_L1.29 (antibody, V domains shown)
VH: B1 VH
VL: B1 VL with N34T, D56W
notes: also called VL-N34T; Kabat 28
B26: H1_L1.30 (antibody, V domains shown)
VH: B1 VH
VL: B1 VL with N34G, D56W
notes: also called VL-N34G; Kabat 28
B27: H1_L1.33 (antibody, V domains shown)
VH: B1 VH
VL: B1 VL with Q35H, D56W
notes: also called VL-Q35H; Kabat 29
B28: H1_L1.43 (antibody, V domains shown)
VH: B1 VH
VL: B1 VL with K36A, D56W
notes: also called VL-K36A; Kabat 30
B29: H1_L1.48 (antibody, V domains shown)
VH: B1 VH
VL: B1 VL with N37H, D56W
notes: also called VL-N37H; Kabat 31
B30: H1_L1.38 (antibody, V domains shown)
VH: B1 VH
VL: B1 VL with Q35I, D56W
notes: also called VL-Q35I; Kabat 29
B31: H1_L1.37 (antibody, V domains shown)
VH: B1 VH
VL: B1 VL with Q35F, D56W
notes: also called VL-Q35F; Kabat 29
B32: H1_L1.35 (antibody, V domains shown)
VH: B1 VH
VL: B1 VL with Q35K, D56W
notes: also called VL-Q35K; Kabat 29
B33: H1_L1.36 (antibody, V domains shown)
VH: B1 VH
VL: B1 VL with Q35A, D56W
notes: also called VL-Q35A; Kabat 29
B34: H1_L1.39 (antibody, V domains shown)
VH: B1 VH
VL: B1 VL with K36R, D56W
notes: also called VL-K36R; Kabat 30
B35: H1_L1.44 (antibody, V domains shown)
VH: B1 VH
VL: B1 VL with K36G, D56W
notes: also called VL-K36G; Kabat 30
B36: H1_L1.27 (antibody, V domains shown)
VH: B1 VH
VL: B1 VL with N34R, D56W
notes: also called VL-N34R; Kabat 28
B37: H1_L1.49 (antibody, V domains shown)
VH: B1 VH
VL: B1 VL with N37E, D56W
notes: also called VL-N37E; Kabat 31
B38: H1_L1.26 (antibody, V domains shown)
VH: B1 VH
VL: B1 VL with N34S, D56W
notes: also called VL-N34S; Kabat 28

biological target: T1, human PD-1-His (human, UniProt Q15116 25-167, limits assumed); experiment: Octet [D00120 Figure 65H]
T1 construct: Antigen of the Octet assays; not shown: His tag
Source text: In particular, anti-human IgG-Fc (AHC) biosensors were used to capture the test articles and dipped into multiple concentrations of PD-1.

T1 sequence (Q15116 25-167 limits assumed): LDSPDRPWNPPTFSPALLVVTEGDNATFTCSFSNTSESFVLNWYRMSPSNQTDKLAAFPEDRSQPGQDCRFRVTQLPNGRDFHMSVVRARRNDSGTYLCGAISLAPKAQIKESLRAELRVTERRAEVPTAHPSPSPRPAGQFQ

Kd [nM]	koff [s⁻¹]	kon [M⁻¹ s⁻¹]	Binder
51.6	0.00455	88100	B1
25.9	0.00244	94400	B2
50.3	0.00535	106000	B3
55	0.00512	93100	B4
35.3	0.00339	96200	B5
60.3	0.00348	57700	B6
98	0.00949	96800	B7
45.3	0.00496	110000	B8
265	0.0244	92300	B9
178	0.0166	92900	B10
47.1	0.0043	91400	B11
41.6	0.00418	100000	B12
30.9	0.00281	90700	B13

biological target: T1, human PD-1-His; experiment: Octet

Kd [nM]	koff [s⁻¹]	kon [M⁻¹ s⁻¹]	Binder
152	0.0123	80900	B14
36.5	0.0049	134000	B15
38.1	0.00455	120000	B16
26.4	0.00324	123000	B17
403	0.0539	134000	B18
35	0.00476	136000	B19
42.1	0.00451	107000	B20
39.7	0.00508	128000	B21
23.8	0.00353	149000	B22
42.1	0.00409	97100	B23
8.6	0.00135	157000	B24
305	0.0405	133000	B25
61.9	0.00901	146000	B26
42.7	0.00566	133000	B27
39.8	0.00546	137000	B28
80.1	0.00785	98000	B29
30.5	0.00439	144000	B30
29	0.00364	126000	B31
57.6	0.00638	111000	B32
60.9	0.00678	111000	B33
54.5	0.00596	109000	B34
19.9	0.00291	146000	B35
51.5	0.0117	227000	B36
61.1	0.00697	114000	B37
177	0.0229	130000	B38

— US20240294593A1 (Genentech, published 2024)
